Tested on: Escherichia coli TOP10
Test: shrunken log2 fold change of peptide-encoding DNA abundance (4.5 h post-induction vs induction); higher = less antimicrobial activity (less host growth inhibition)
Settings: time post-induction: 4.5 h; library: site-saturation at positions 5, 18, 19, 20
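Further: peptides expressed intracellularly from a pBAD plasmid library in pooled LB shake-flask culture, induced with 0.3% L-arabinose, DNA abundance read by NGS, three biological replicates, DESeq2 with apeglm shrinkage.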

Row | Sequence | shrunken log2 fold change
1 | RRIRERPPRLPRPRPRPYKFPRP | -0.835
2 | RRIRERPPRLPRPRPRPYLKPRP | 0.0189
3 | RRIRERPPRLPRPRPRPYLQPRP | -0.138
4 | RRIRERPPRLPRPRPRPYMKPRP | -0.438
5 | RRIRERPPRLPRPRPRPYNCPRP | 0.275
6 | RRIRERPPRLPRPRPRPYPWPRP | -0.706
7 | RRIRERPPRLPRPRPRPYQDPRP | -0.0275
8 | RRIRERPPRLPRPRPRPYQEPRP | -0.255
9 | RRIRERPPRLPRPRPRPYRIPRP | -0.0789
10 | RRIRERPPRLPRPRPRPYRNPRP | -0.166
11 | RRIRERPPRLPRPRPRPYSSPRP | -0.0288
12 | RRIRERPPRLPRPRPRPYTHPRP | -0.623
13 | RRIRERPPRLPRPRPRPYVTPRP | -0.447
14 | RRIRERPPRLPRPRPRPYYQPRP | 0.0241
15 | RRIRFRPPRLPRPRPRPAAHPRP | 0.333
16 | RRIRFRPPRLPRPRPRPAALPRP | -0.0867
17 | RRIRFRPPRLPRPRPRPACAPRP | 0.291
18 | RRIRFRPPRLPRPRPRPADAPRP | 0.147
19 | RRIRFRPPRLPRPRPRPAHCPRP | 0.0781
20 | RRIRFRPPRLPRPRPRPAHTPRP | -0.282
21 | RRIRFRPPRLPRPRPRPAIAPRP | 0.0519
22 | RRIRFRPPRLPRPRPRPAINPRP | -0.239
23 | RRIRFRPPRLPRPRPRPALFPRP | 0.173
24 | RRIRFRPPRLPRPRPRPAMFPRP | -0.292
25 | RRIRFRPPRLPRPRPRPAPAPRP | 0.674

Row | Sequence | shrunken log2 fold change
26 | RRIRFRPPRLPRPRPRPAPKPRP | 0.379
27 | RRIRFRPPRLPRPRPRPAPQPRP | 0.666
28 | RRIRFRPPRLPRPRPRPAQHPRP | 0.265
29 | RRIRFRPPRLPRPRPRPASWPRP | 0.026
30 | RRIRFRPPRLPRPRPRPATWPRP | 0.317
31 | RRIRFRPPRLPRPRPRPAVEPRP | 0.509
32 | RRIRFRPPRLPRPRPRPAVWPRP | 0.402
33 | RRIRFRPPRLPRPRPRPAWFPRP | 0.122
34 | RRIRFRPPRLPRPRPRPAWGPRP | 0.144
35 | RRIRFRPPRLPRPRPRPAYAPRP | 0.113
36 | RRIRFRPPRLPRPRPRPAYCPRP | -0.219
37 | RRIRFRPPRLPRPRPRPCAGPRP | -0.177
38 | RRIRFRPPRLPRPRPRPCARPRP | 0.232
39 | RRIRFRPPRLPRPRPRPCCKPRP | -0.00992
40 | RRIRFRPPRLPRPRPRPCEQPRP | -0.00534
41 | RRIRFRPPRLPRPRPRPCFKPRP | -0.426
42 | RRIRFRPPRLPRPRPRPCGRPRP | 0.156
43 | RRIRFRPPRLPRPRPRPCIIPRP | -0.568
44 | RRIRFRPPRLPRPRPRPCMWPRP | -0.258
45 | RRIRFRPPRLPRPRPRPCNMPRP | -1.46
46 | RRIRFRPPRLPRPRPRPCPSPRP | -0.0894
47 | RRIRFRPPRLPRPRPRPCRGPRP | -0.106
48 | RRIRFRPPRLPRPRPRPCRIPRP | -2.21
49 | RRIRFRPPRLPRPRPRPCSQPRP | 0.0319
50 | RRIRFRPPRLPRPRPRPCSYPRP | -0.344

Row | Sequence | shrunken log2 fold change
51 | RRIRFRPPRLPRPRPRPCWTPRP | -0.323
52 | RRIRFRPPRLPRPRPRPCYKPRP | -0.228
53 | RRIRFRPPRLPRPRPRPDAGPRP | 0.121
54 | RRIRFRPPRLPRPRPRPDCTPRP | -0.0512
55 | RRIRFRPPRLPRPRPRPDCVPRP | -0.0904
56 | RRIRFRPPRLPRPRPRPDGCPRP | -0.0502
57 | RRIRFRPPRLPRPRPRPDHWPRP | -0.00426
58 | RRIRFRPPRLPRPRPRPDIAPRP | 0.101
59 | RRIRFRPPRLPRPRPRPDITPRP | -0.0339
60 | RRIRFRPPRLPRPRPRPDKKPRP | -0.0461
61 | RRIRFRPPRLPRPRPRPDLAPRP | 0.0811
62 | RRIRFRPPRLPRPRPRPDLLPRP | 0.118
63 | RRIRFRPPRLPRPRPRPDLSPRP | -0.0807
64 | RRIRFRPPRLPRPRPRPDMFPRP | -0.0758
65 | RRIRFRPPRLPRPRPRPDNQPRP | -0.834
66 | RRIRFRPPRLPRPRPRPDQPPRP | 0.57
67 | RRIRFRPPRLPRPRPRPDQQPRP | -0.078
68 | RRIRFRPPRLPRPRPRPDWNPRP | -0.287
69 | RRIRFRPPRLPRPRPRPDWVPRP | 0.0788
70 | RRIRFRPPRLPRPRPRPDYMPRP | -0.432
71 | RRIRFRPPRLPRPRPRPECLPRP | -0.0562
72 | RRIRFRPPRLPRPRPRPEEIPRP | 0.0025
73 | RRIRFRPPRLPRPRPRPEFMPRP | -0.109
74 | RRIRFRPPRLPRPRPRPEGSPRP | -0.134
75 | RRIRFRPPRLPRPRPRPEICPRP | 0.172

Row | Sequence | shrunken log2 fold change
76 | RRIRFRPPRLPRPRPRPEIDPRP | 0.0823
77 | RRIRFRPPRLPRPRPRPEKSPRP | -0.101
78 | RRIRFRPPRLPRPRPRPELMPRP | 0.179
79 | RRIRFRPPRLPRPRPRPELTPRP | 0.136
80 | RRIRFRPPRLPRPRPRPEMGPRP | 0.0117
81 | RRIRFRPPRLPRPRPRPENAPRP | 0.402
82 | RRIRFRPPRLPRPRPRPENSPRP | -3.45e-05
83 | RRIRFRPPRLPRPRPRPENYPRP | 0.0219
84 | RRIRFRPPRLPRPRPRPEPQPRP | 0.417
85 | RRIRFRPPRLPRPRPRPEPSPRP | 0.378
86 | RRIRFRPPRLPRPRPRPERLPRP | 0.265
87 | RRIRFRPPRLPRPRPRPERMPRP | 0.124
88 | RRIRFRPPRLPRPRPRPESYPRP | -0.0666
89 | RRIRFRPPRLPRPRPRPEVIPRP | 0.0373
90 | RRIRFRPPRLPRPRPRPEWTPRP | 0.155
91 | RRIRFRPPRLPRPRPRPFCKPRP | -0.374
92 | RRIRFRPPRLPRPRPRPFCMPRP | -0.62
93 | RRIRFRPPRLPRPRPRPFCWPRP | 0.4
94 | RRIRFRPPRLPRPRPRPFDPPRP | -0.135
95 | RRIRFRPPRLPRPRPRPFEDPRP | -0.0916
96 | RRIRFRPPRLPRPRPRPFEEPRP | -0.119
97 | RRIRFRPPRLPRPRPRPFFWPRP | 0.118
98 | RRIRFRPPRLPRPRPRPFGDPRP | -0.19
99 | RRIRFRPPRLPRPRPRPFIGPRP | -0.362
100 | RRIRFRPPRLPRPRPRPFIHPRP | -0.724

Row | Sequence | shrunken log2 fold change
101 | RRIRFRPPRLPRPRPRPFKTPRP | -0.164
102 | RRIRFRPPRLPRPRPRPFMNPRP | -0.03
103 | RRIRFRPPRLPRPRPRPFNMPRP | -0.314
104 | RRIRFRPPRLPRPRPRPFNTPRP | -0.688
105 | RRIRFRPPRLPRPRPRPFNVPRP | -0.0431
106 | RRIRFRPPRLPRPRPRPFPAPRP | -0.132
107 | RRIRFRPPRLPRPRPRPFQQPRP | -0.268
108 | RRIRFRPPRLPRPRPRPFSFPRP | -0.499
109 | RRIRFRPPRLPRPRPRPFSNPRP | 0.0406
110 | RRIRFRPPRLPRPRPRPFTIPRP | -0.313
111 | RRIRFRPPRLPRPRPRPFTPPRP | -0.358
112 | RRIRFRPPRLPRPRPRPFWFPRP | -0.275
113 | RRIRFRPPRLPRPRPRPFWQPRP | -0.321
114 | RRIRFRPPRLPRPRPRPFYCPRP | -0.781
115 | RRIRFRPPRLPRPRPRPFYGPRP | -0.146
116 | RRIRFRPPRLPRPRPRPFYMPRP | -0.317
117 | RRIRFRPPRLPRPRPRPFYSPRP | -0.0734
118 | RRIRFRPPRLPRPRPRPFYYPRP | -0.777
119 | RRIRFRPPRLPRPRPRPGEEPRP | 0.0793
120 | RRIRFRPPRLPRPRPRPGFAPRP | 0.374
121 | RRIRFRPPRLPRPRPRPGFFPRP | 0.023
122 | RRIRFRPPRLPRPRPRPGGTPRP | -0.0188
123 | RRIRFRPPRLPRPRPRPGHGPRP | 0.148
124 | RRIRFRPPRLPRPRPRPGHVPRP | -0.447
125 | RRIRFRPPRLPRPRPRPGIEPRP | -0.0616

Row | Sequence | shrunken log2 fold change
126 | RRIRFRPPRLPRPRPRPGILPRP | -0.187
127 | RRIRFRPPRLPRPRPRPGKQPRP | 0.0463
128 | RRIRFRPPRLPRPRPRPGLKPRP | 0.0731
129 | RRIRFRPPRLPRPRPRPGNPPRP | -0.00343
130 | RRIRFRPPRLPRPRPRPGNRPRP | 1.63
131 | RRIRFRPPRLPRPRPRPGNSPRP | 0.00114
132 | RRIRFRPPRLPRPRPRPGPVPRP | 0.266
133 | RRIRFRPPRLPRPRPRPGQIPRP | -0.133
134 | RRIRFRPPRLPRPRPRPGSCPRP | -0.0149
135 | RRIRFRPPRLPRPRPRPGSDPRP | -0.111
136 | RRIRFRPPRLPRPRPRPGTRPRP | 0.208
137 | RRIRFRPPRLPRPRPRPGVCPRP | 0.307
138 | RRIRFRPPRLPRPRPRPGVYPRP | -0.0669
139 | RRIRFRPPRLPRPRPRPGWIPRP | 0.0799
140 | RRIRFRPPRLPRPRPRPGYEPRP | -0.16
141 | RRIRFRPPRLPRPRPRPGYHPRP | -1.45
142 | RRIRFRPPRLPRPRPRPGYYPRP | -0.195
143 | RRIRFRPPRLPRPRPRPHAMPRP | 0.203
144 | RRIRFRPPRLPRPRPRPHCMPRP | -0.371
145 | RRIRFRPPRLPRPRPRPHDCPRP | -0.0297
146 | RRIRFRPPRLPRPRPRPHEEPRP | 0.00592
147 | RRIRFRPPRLPRPRPRPHENPRP | 0.0161
148 | RRIRFRPPRLPRPRPRPHFSPRP | -0.24
149 | RRIRFRPPRLPRPRPRPHGKPRP | -0.0579
150 | RRIRFRPPRLPRPRPRPHKTPRP | -0.0597

Source: the supplement of paper PMC9112550, “Optimization of the antimicrobial peptide Bac7 by deep mutational scanning” (BMC Biology, 2022)
